From the supplement of paper PMC9170038 come the findings set out here.

The series deals with MS2 coat protein. As to the kind of experiment: apparent KD of MS2 coat protein; designed switch direction (-1 OFF switch, 1 ON switch): 1; higher = weaker reporter binding. The method in brief:
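The reported apparent KD is a per-design median over clusters, from curve fits of normalised cluster fluorescence. Protein titrations used SNAP-549-labelled MS2 coat protein, doubled from 0.7 or 1.5 nM to 3 µM, in Tris-HCl pH 7.5 buffer with KCl, MgCl2, BSA, DTT, tRNA and Tween-20, with no input, 200 uM small-molecule ligand, or an oligonucleotide input. The RNA switches were transcribed on Illumina chips by stalled E. coli RNA polymerase.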

[1] abbreviates: Eterna round: R95, input ligand: FMN 200 uM.
Setting [2] is: Eterna round: R95, input ligand: microRNA oligo, concentration not stated.
[3] abbreviates: Eterna round: R95, input ligand: none.
Where [4] appears, read: input ligand: microRNA oligo, concentration not stated.

Turning to “GUGCGAGUGCCACAGGAUAUACGUGGAUCGACAUGAGGAUCACCCAUGUAUAUCCUAAUAAUUGCGUAGAAGGGUGGUCAGUCGG [Inzage] (puzzle: Same State 2)”, the “apparent KD of MS2 coat protein” value under setting [1] stood at 0.136 µM, the “apparent KD of MS2 coat protein” value under setting [2] turned out to be 0.0748 µM and the “apparent KD of MS2 coat protein” value under setting [3] came out at 0.105 µM.

As to “GUGGUCAAUCAAGGAUAUGGAGCCUUAUUGGCUCCAGAAGGUGGGACAUGAGGAUCACCCAUGUGGCAGUGGUAAAAUGACCAC [Fiskers NG1ss - 37] (Eterna round: R96, puzzle: Same State NG 1)”, the “apparent KD of MS2 coat protein” value is, setting by setting: (input ligand: FMN 200 uM) 0.0356 µM; under setting [4], 0.0568 µM; (input ligand: none) 0.0634 µM.

Regarding “GUGGUCAGACAUGAGGAUCACCCAUGUGGAAUAAAUAACACAGAGGAUAUGGAAUAUAAAAUAUACCAGAAGGCUGGAUUGGUG (Eterna round: R96, puzzle: Same State NG 3)”, the “apparent KD of MS2 coat protein” value stood at 0.131 µM (input ligand: FMN 200 uM), 0.188 µM under setting [4] and 0.268 µM (input ligand: none).

Turning to “GUGGUCAGACAUGAGGAUCACCCAUGUGGAAUAAAUAACAGACAGGAUAUCAAAUAUAGGAUAUAUGAGAAGGGUCGAUUGGUG (Eterna round: R96, puzzle: Same State NG 3)”, under setting [4], the “apparent KD of MS2 coat protein” value was determined as 0.081 µM.

As to “GUUAAACAUGAGGAUCACCCAUGUAAUAAUAUGGGAGGAUAUGGGAAUUAAUUAAUUAAACCAGAAGGCCUAAUUG [Mat - Same State 1 - D84] (puzzle: Same State 1)”, the “apparent KD of MS2 coat protein” value by setting is: under setting [1], 0.0253 µM; under setting [2], 0.142 µM; under setting [3], 0.189 µM.

In the case of “GUUACAUGAGGAUCACCCAUGUAUGUGUGGGAGUAAGUGUCUUAGGAUAUCUAUCAUUGAAUUUAAGAGAAGGAAGAUUGUUGU [JMF's solution 92] (Eterna round: R96, puzzle: Same State NG 3)”, the “apparent KD of MS2 coat protein” value under setting [4] came out at 0.0813 µM.

For “GUUACAUGAGGAUCACCCAUGUAUGUGUGGGAGUAAGUGUCUUAGGAUAUCUAUGAUUUAAUUGAAGAGAAGGAAGAUUGUUGU [JMF's solution 84] (Eterna round: R96, puzzle: Same State NG 3)”, the “apparent KD of MS2 coat protein” value under setting [4] was determined as 0.0991 µM.

As for “GUUACAUGAGGAUCACCCAUGUAUGUGUGGGAGUAAGUGUCUUAGGAUAUCUAUGAUUUAGUUUAAGAGAAGGAAGAUUGUUGU [JMF's solution 79] (Eterna round: R96, puzzle: Same State NG 3)”, the “apparent KD of MS2 coat protein” value amounted to 0.117 µM (input ligand: FMN 200 uM), 0.0863 µM under setting [4] and 0.111 µM (input ligand: none).

As for “GUUACAUGAGGAUCACCCAUGUAUGUGUGGGAGUAAGUGUCUUAGGAUAUCUAUUAUUUAAUUUUAGAGAAGGAAGAUUGUUGU [JMF's solution 27] (Eterna round: R96, puzzle: Same State NG 3)”, the “apparent KD of MS2 coat protein” value was found to be 0.138 µM (input ligand: FMN 200 uM), 0.105 µM under setting [4] and 0.12 µM (input ligand: none).

Regarding “GUUACAUGAGGAUCACCCAUGUAUGUGUGGGAGUAAGUGUCUUAGGAUAUCUGUUAUUUAAGUUAAGAGAAGGAAGAUUGUUGU [JMF's solution 42] (Eterna round: R96, puzzle: Same State NG 3)”, the “apparent KD of MS2 coat protein” value reads like this: (input ligand: FMN 200 uM) 0.0929 µM; under setting [4], 0.0456 µM; (input ligand: none) 0.0824 µM.

With “GUUAUACAUGAGGAUCACCCAUGUCAAUGUAGUCGAGGAUAUGGGCAGCUAUGAGGCGUACUAGAAGGCGAAGAGU [JL-ss1-3.12 ViennaUCT mod] (puzzle: Same State 1)”, the “apparent KD of MS2 coat protein” value by setting is: under setting [1], 0.164 µM; under setting [2], 0.374 µM; under setting [3], 0.309 µM.

For “UAAAGAUCGCGAGGAUAUCGCGAGGAUCACCCGUGAGAAGGCGCAGAGCCGAGGAUCACCCGGCUGAUCCUGAGGAGGAGGUAA (Eterna round: R96, puzzle: Same State NG 1)”, the “apparent KD of MS2 coat protein” value (input ligand: FMN 200 uM) was determined as 0.249 µM, the “apparent KD of MS2 coat protein” value under setting [4] was 0.41 µM and the “apparent KD of MS2 coat protein” value (input ligand: none) stood at 0.556 µM.

For the sequence “UAAAUAAAGUAAGGAUAUACAUGAGGAUCUCUCGUAGAAGGUACUAUACAUGAGGAUCACCCAUGUGCCGGUCCGUAGACUGGA [Mat - Same State NG 1 - JL mod - D8] (Eterna round: R96, puzzle: Same State NG 1)”, the “apparent KD of MS2 coat protein” value runs as follows: (input ligand: FMN 200 uM) 0.475 µM; under setting [4], 0.107 µM; (input ligand: none) 0.0688 µM.

Turning to “UACAAUCUAUCUGAGGAUAUCAUGAAGAAAACAUGAGGAUCACCCAUGUGCAGGAGAACUGCAAAUGAGAAGGCAGAUAGAUUGU [Mat - Same State 2 - Mod - D1] (puzzle: Same State 2)”, the “apparent KD of MS2 coat protein” value runs as follows: under setting [1], 0.00946 µM; under setting [2], 0.0129 µM; under setting [3], 0.0134 µM.

For “UAGACAAGCUUUAUGUUCUUCCUAUUCCAACAUGAGGAUCACCCAUGUAGUCUGUCGAUUGUGAGUGUAGUUGAGAU [JR_SHM208A_Sub026] (puzzle: Sensor for hsa-mir-208a)”, the “apparent KD of MS2 coat protein” value under setting [1] turned out to be 0.0578 µM, the “apparent KD of MS2 coat protein” value under setting [2] was found to be 0.052 µM and the “apparent KD of MS2 coat protein” value under setting [3] came to 0.0619 µM.

In the case of “UAGGGACAUGAGGAUCACCCAUGUGCCUCAUAUGGAGAAACUCAGGAUAUGCUGAGGAUCACCCGGCAGAAGGGAGAUUUGAGG (Eterna round: R96, puzzle: Same State NG 3)”, the “apparent KD of MS2 coat protein” value (input ligand: FMN 200 uM) worked out at 0.0423 µM, the “apparent KD of MS2 coat protein” value under setting [4] was found to be 0.0263 µM and the “apparent KD of MS2 coat protein” value (input ligand: none) was found to be 0.0364 µM.

Take “UAGGUUGAGCAAGGAUAUCCAAGAUUGAUUCGUAUCGACAUGAGGAUCACCCAUGUCCCGAGAAGGGAGAAGGUGCGUCCAACC [Eternabot solution 30] (Eterna round: R96, puzzle: Same State NG 2)”: the “apparent KD of MS2 coat protein” value reads like this: (input ligand: FMN 200 uM) 0.0154 µM; under setting [4], 0.0279 µM; (input ligand: none) 0.0423 µM.

In the case of “UAGUGAUUGCAAGGAUAUGCUAGUUUUUAUUUGUGUUUGAUAUCUAACAUGAGGAUCACCCAUGUGCAGAAGGUGCUUGAUUUG [JR_SSNG2_Sub077] (Eterna round: R96, puzzle: Same State NG 2)”, the “apparent KD of MS2 coat protein” value under setting [4] is 0.0686 µM.

For the sequence “UAGUGUUUGCGAGGAUAUCGUUUGUUGAAGUUACGAGAAGGCGCUCUAAUUACAUGAGGAUCACCCAUGUCUGUGAUGCAUGAU [JR_SSNG1_Sub070] (Eterna round: R96, puzzle: Same State NG 1)”, the “apparent KD of MS2 coat protein” value (input ligand: FMN 200 uM) was 0.0652 µM, the “apparent KD of MS2 coat protein” value under setting [4] was 0.0563 µM and the “apparent KD of MS2 coat protein” value (input ligand: none) was determined as 0.07 µM.

Turning to “UAUGAAUUACAAGGAUAUUAAUAACAUGAGGAUCACCCAUGUGGCUGUGAGAGUUAGAUAAGCUAUAAGAAGGUGUGUGUGUUU [JR_SSNG2_Sub093] (Eterna round: R96, puzzle: Same State NG 2)”, the “apparent KD of MS2 coat protein” value by setting is: (input ligand: FMN 200 uM) 0.0931 µM; under setting [4], 0.196 µM; (input ligand: none) 0.267 µM.

In the case of “UAUUUAAUCAUAGGAUAUAGUGUGAAAUUUGGACUAGAAGGAUGUAACAUGAGGAUCACCCAUGUGGUAAGUGGGACACAUUGA [JR_SSNG1_Sub097] (Eterna round: R96, puzzle: Same State NG 1)”, the “apparent KD of MS2 coat protein” value under setting [4] was 0.0867 µM.

“UCAAGCGAGAGGCUCGUCUUAUGUUUGGUACAUGAGGAUCACCCAUGUUAGGGACGAUUUAGUUAGAUGGAAUGGAG [JR_SHM208A_Sub034] (puzzle: Sensor for hsa-mir-208a)”: the “apparent KD of MS2 coat protein” value was 0.0573 µM under setting [1], 0.148 µM under setting [2] and 0.0696 µM under setting [3].

In the case of “UCAGUCAUGUAAGGAUAUGCAGCCGAAACGGCUGCAGAAGGUACUAUAAUUACAUGAGGAUCACCCAUGUUAUAAAAUAAAUAU [Mat - Same State NG 1 - JL mod - D65] (Eterna round: R96, puzzle: Same State NG 1)”, the “apparent KD of MS2 coat protein” value was 0.0184 µM (input ligand: FMN 200 uM), 0.036 µM under setting [4] and 0.0766 µM (input ligand: none).

Turning to “UCGGGCGUACUUGCUGACAUGAGGAUCACCCAUGUCCUUGGGCAGGAUAUGGUUCCGUUUCGGUUCCAGAAGGUCCUGGCUGCU [salish99_SSNG3_r04_318] (Eterna round: R96, puzzle: Same State NG 3)”, the “apparent KD of MS2 coat protein” value is 0.0181 µM (input ligand: FMN 200 uM), 0.0244 µM under setting [4] and 0.0255 µM (input ligand: none).

Turning to “UCUUGGUUUUUGCUCGUUUUUUGUGUUGAACAUGAGGAUCACCCAUGUAUUGUACAGUCCGAUUUAAUAAUGGUCCG [JMF 57] (puzzle: Sensor for hsa-mir-208a)”, the “apparent KD of MS2 coat protein” value is, setting by setting: under setting [1], 0.0315 µM; under setting [2], 0.026 µM; under setting [3], 0.0338 µM.

Turning to “UCUUGGUUUUUGCUCGUUUUUUGUGUUGAACAUGAGGAUCACCCAUGUAUUGUACGAUCCGGUUUAGUGAUGGUCCG [JMF 63] (puzzle: Sensor for hsa-mir-208a)”, the “apparent KD of MS2 coat protein” value came to 0.0408 µM under setting [1], 0.0277 µM under setting [2] and 0.0421 µM under setting [3].

Consider “UCUUGGUUUUUGCUCGUUUUUUGUGUUGAACAUGAGGAUCACCCAUGUAUUGUACGGUCCAAUUUAAUAAUAGUCCA [JMF 75] (puzzle: Sensor for hsa-mir-208a)”, for which the “apparent KD of MS2 coat protein” value was determined as 0.0623 µM under setting [1], 0.0528 µM under setting [2] and 0.0755 µM under setting [3].

With “UCUUGGUUUUUGCUCGUUUUUUGUGUUGAACAUGAGGAUCACCCAUGUAUUGUACGGUCCAAUUUAGUAGUGGUCCG [JMF 25] (puzzle: Sensor for hsa-mir-208a)”, the “apparent KD of MS2 coat protein” value reads like this: under setting [1], 0.0266 µM; under setting [2], 0.0153 µM; under setting [3], 0.0262 µM.

Consider “UCUUGGUUUUUGCUCGUUUUUUGUGUUGAACAUGAGGAUCACCCAUGUAUUGUACGGUCCGAUUUAGUGAUGGUCCA [JMF 40] (puzzle: Sensor for hsa-mir-208a)”, for which the “apparent KD of MS2 coat protein” value is, setting by setting: under setting [1], 0.0369 µM; under setting [2], 0.0184 µM; under setting [3], 0.0425 µM.
